Measurements published in PMC6274866.

What was measured:
[1] = target: STIM2-2β-OASF (residues 238–504 containing the naturally occurring VAASYLIQ insertion after E383) (human); test: SEC-MALS; 1 mg/mL protein injected on Superdex 200 Increase 10/300 GL at 10 °C; 20 mM TRIS, 300 mM NaCl, 1 mM DTT, pH 8.0; without CaCl2; stoichiometric ratio = MALS molecular weight / theoretical monomer mass
[2] = target: STIM2-2β-OASF (residues 238–504 containing the naturally occurring VAASYLIQ insertion after E383) (human); test: SEC-MALS; 1 mg/mL protein injected on Superdex 200 Increase 10/300 GL at 10 °C; 20 mM TRIS, 300 mM NaCl, 1 mM DTT, pH 8.0; with 25 mM CaCl2; stoichiometric ratio = MALS molecular weight / theoretical monomer mass

STIM2-2β-OASF (residues 238–504 containing the naturally occurring VAASYLIQ insertion after E383) (domain or fragment), sequence (Q9P246 238-504): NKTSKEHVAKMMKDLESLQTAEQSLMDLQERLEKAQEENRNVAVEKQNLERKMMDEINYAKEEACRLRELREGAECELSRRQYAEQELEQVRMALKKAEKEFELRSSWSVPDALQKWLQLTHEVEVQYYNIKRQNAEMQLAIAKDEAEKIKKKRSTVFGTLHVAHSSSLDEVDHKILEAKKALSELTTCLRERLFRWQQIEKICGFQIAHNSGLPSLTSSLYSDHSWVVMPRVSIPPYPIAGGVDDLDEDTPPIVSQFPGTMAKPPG

stoichiometry N [1]: 1.96
stoichiometry N [2]: 1.97
Substance: STIM2-2β-OASF (residues 238–504 containing the naturally occurring VAASYLIQ insertion after E383) (domain or fragment)
